Data on eight molecules can be found in patent US20180155407A1 (Sanofi, published 2018).

Common to all, as to assay: cell-based or functional assay
Test [1] deals with human GLP-1 receptor (human) (UniProt P43220).
Test [2] deals with human glucagon receptor (human) (UniProt P47871).
The next test deals with human glucagon receptor (human, UniProt P47871 26-477).
The target in a further test is T1, human GIP receptor (human, UniProt P48546 22-466).
T1 sequence (looked up): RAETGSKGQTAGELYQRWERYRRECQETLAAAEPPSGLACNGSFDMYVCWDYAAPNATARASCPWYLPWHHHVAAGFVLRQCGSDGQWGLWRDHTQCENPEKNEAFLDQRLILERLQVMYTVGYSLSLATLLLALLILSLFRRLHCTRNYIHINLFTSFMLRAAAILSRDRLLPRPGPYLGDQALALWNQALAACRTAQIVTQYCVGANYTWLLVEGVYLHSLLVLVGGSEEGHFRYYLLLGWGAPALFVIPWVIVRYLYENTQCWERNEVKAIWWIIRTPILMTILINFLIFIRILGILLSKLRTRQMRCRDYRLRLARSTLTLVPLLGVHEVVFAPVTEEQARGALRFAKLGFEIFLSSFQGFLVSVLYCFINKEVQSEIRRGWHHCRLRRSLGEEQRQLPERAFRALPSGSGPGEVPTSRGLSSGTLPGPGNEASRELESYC

The next test deals with human GLP-1 receptor (human, UniProt P43220 24-463).

Numbered stars: 1 amine (or outer) side, 2 acyl side, 3 side chain; on linkers, the order of the positions; unused ones are H or OH. Square brackets hold non-standard residues; d marks the D form. Side chains are listed from the residue outwards. Ends that are not written are not given here. * marks the point of attachment. γGlu = O=C(O)[C@H](CCC(=O)[*:2])N[*:1]; Palmitoyl = CCCCCCCCCCCCCCCC(=O)*; gAAA = not defined here; AEEA = NCCOCCOCC(=O)O; Aib = CC(C)(N)C(=O)O

human glucagon receptor, sequence (P47871 26-477): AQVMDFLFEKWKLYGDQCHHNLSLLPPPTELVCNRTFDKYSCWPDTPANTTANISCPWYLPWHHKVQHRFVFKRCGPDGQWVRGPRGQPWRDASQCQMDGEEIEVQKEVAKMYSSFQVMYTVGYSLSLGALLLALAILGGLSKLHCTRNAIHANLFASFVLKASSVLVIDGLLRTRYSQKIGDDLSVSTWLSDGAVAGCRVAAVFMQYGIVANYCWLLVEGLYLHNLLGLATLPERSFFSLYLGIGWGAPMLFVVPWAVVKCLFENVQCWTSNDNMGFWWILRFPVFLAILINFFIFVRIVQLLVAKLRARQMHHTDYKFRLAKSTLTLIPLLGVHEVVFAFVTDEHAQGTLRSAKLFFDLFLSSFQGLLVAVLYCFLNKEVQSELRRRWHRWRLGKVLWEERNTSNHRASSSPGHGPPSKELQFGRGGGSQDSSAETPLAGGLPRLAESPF
human GLP-1 receptor (human), sequence (P43220 24-463): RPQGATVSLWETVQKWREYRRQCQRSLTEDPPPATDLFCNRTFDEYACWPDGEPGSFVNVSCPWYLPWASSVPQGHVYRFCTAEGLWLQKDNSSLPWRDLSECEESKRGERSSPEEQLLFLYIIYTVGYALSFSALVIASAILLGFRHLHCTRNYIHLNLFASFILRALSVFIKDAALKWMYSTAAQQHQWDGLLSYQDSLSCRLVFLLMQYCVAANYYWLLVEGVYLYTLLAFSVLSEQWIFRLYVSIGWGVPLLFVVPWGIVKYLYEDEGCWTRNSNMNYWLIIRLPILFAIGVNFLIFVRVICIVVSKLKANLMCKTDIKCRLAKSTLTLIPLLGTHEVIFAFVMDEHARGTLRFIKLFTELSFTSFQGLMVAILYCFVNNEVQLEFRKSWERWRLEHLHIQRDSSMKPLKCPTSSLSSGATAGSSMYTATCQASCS
human glucagon receptor (human), sequence (P47871 26-477): as the sequence (P47871 26-477) above

Regarding exendin-4 (peptide), the EC50 hGLP-1R [pM] (cAMP formation) in test [1] is 0.4 pM. Moreover, in test [2], the EC50 hGlucagon R [pM] (cAMP formation) is > 1e+07 pM.

B1: SEQ ID NO: 21 (peptide)
peptide: H[Aib]QGTFTSDLSKLK([γGlu-AEEA-gAAA-Palmitoyl])EKQRQ[Aib]EFIEWLKA[dA]GHPS[Aib]KPPPK-NH2
modifications: reading uncertain
Turning to B1, the “EC50 hGlucagon R (cAMP formation)” value with human glucagon receptor came out at 69.9 pM. Further, the “EC50 hGIP R (cAMP formation)” value with human GIP receptor was determined as 24.6 pM. Also, the “EC50 hGLP-1R (cAMP formation)” value with human GLP-1 receptor worked out at 4.2 pM.

B2: SEQ ID NO: 23 (peptide)
peptide: H[Aib]QGTFTSDLSKLK([γGlu-AEEA-gAAA-Palmitoyl])EEQRQ[Aib]EFIEWLKA[dA]GHPS[Aib]KPPPK-NH2
modifications: reading uncertain
Consider B2, for which the “EC50 hGlucagon R (cAMP formation)” value with human glucagon receptor was 64.3 pM. Besides, the “EC50 hGIP R (cAMP formation)” value with human GIP receptor turned out to be 2 pM. In addition, the “EC50 hGLP-1R (cAMP formation)” value with human GLP-1 receptor came to 1 pM.

B3: SEQ ID NO: 22 (peptide)
peptide: H[Aib]QGTFTSDLSKLK([γGlu-AEEA-gAAA-Palmitoyl])EEQRQ[Aib]EFIEWLKAGGHPS[Aib]KPPPK-NH2
modifications: reading uncertain
Take B3: the “EC50 hGlucagon R (cAMP formation)” value with human glucagon receptor was 108 pM. For the same molecule, the “EC50 hGIP R (cAMP formation)” value with human GIP receptor was 6 pM. The “EC50 hGLP-1R (cAMP formation)” value with human GLP-1 receptor worked out at 2.1 pM.

B4: SEQ ID NO: 20 (peptide)
peptide: H[Aib]QGTFTSDLSKLK([γGlu-AEEA-gAAA-Palmitoyl])EKQRQ[Aib]EFIEWLKAGGHPS[Aib]KPPPK-NH2
modifications: reading uncertain
B4: the “EC50 hGlucagon R (cAMP formation)” value with human glucagon receptor is 44 pM. Moreover, the “EC50 hGIP R (cAMP formation)” value with human GIP receptor came to 12.7 pM. Moreover, the “EC50 hGLP-1R (cAMP formation)” value in the test with human GLP-1 receptor came to 2.4 pM.

B5: SEQ ID NO: 7 (peptide)
peptide: H[Aib]QGTFTSDLSKLK([γGlu-γGlu-Palmitoyl])EKQRQ[Aib]EFIEWLKA[dA]GPPS[Aib]KPPPK-NH2
modifications: N-terminus assumed
SMILES: CCCCCCCCCCCCCCCC(=O)N[C@@H](CCC(=O)N[C@@H](CCC(=O)NCCCC[C@H](NC(=O)[C@H](CC(C)C)NC(=O)[C@H](CCCCN)NC(=O)[C@H](CO)NC(=O)[C@H](CC(C)C)NC(=O)[C@H](CC(=O)O)NC(=O)[C@H](CO)NC(=O)[C@@H](NC(=O)[C@H](Cc1ccccc1)NC(=O)[C@@H](NC(=O)CNC(=O)[C@H](CCC(N)=O)NC(=O)C(C)(C)NC(=O)[C@@H](N)Cc1c[nH]cn1)[C@@H](C)O)[C@@H](C)O)C(=O)N[C@@H](CCC(=O)O)C(=O)N[C@@H](CCCCN)C(=O)N[C@@H](CCC(N)=O)C(=O)N[C@@H](CCCNC(=N)N)C(=O)N[C@@H](CCC(N)=O)C(=O)NC(C)(C)C(=O)N[C@@H](CCC(=O)O)C(=O)N[C@@H](Cc1ccccc1)C(=O)N[C@H](C(=O)N[C@@H](CCC(=O)O)C(=O)N[C@@H](Cc1c[nH]c2ccccc12)C(=O)N[C@@H](CC(C)C)C(=O)N[C@@H](CCCCN)C(=O)N[C@@H](C)C(=O)N[C@H](C)C(=O)NCC(=O)N1CCC[C@H]1C(=O)N1CCC[C@H]1C(=O)N[C@@H](CO)C(=O)NC(C)(C)C(=O)N[C@@H](CCCCN)C(=O)N1CCC[C@H]1C(=O)N1CCC[C@H]1C(=O)N1CCC[C@H]1C(=O)N[C@@H](CCCCN)C(N)=O)[C@@H](C)CC)C(=O)O)C(=O)O
B5: the “EC50 hGlucagon R (cAMP formation)” value with human glucagon receptor came out at 21.8 pM. In addition, the “EC50 hGIP R (cAMP formation)” value with human GIP receptor stood at 14.2 pM. In addition, in the test with human GLP-1 receptor, the “EC50 hGLP-1R (cAMP formation)” value came out at 4 pM.

B6: SEQ ID NO: 18 (peptide)
peptide: H[Aib]QGTFTSDLSKLK([γGlu-γGlu-AEEA-Palmitoyl])EEQRQ[Aib]EFIEWLKAGGHPS[Aib]KPPPK-NH2
modifications: N-terminus assumed
SMILES: CCCCCCCCCCCCCCCC(=O)NCCOCCOCC(=O)N[C@@H](CCC(=O)N[C@@H](CCC(=O)NCCCC[C@H](NC(=O)[C@H](CC(C)C)NC(=O)[C@H](CCCCN)NC(=O)[C@H](CO)NC(=O)[C@H](CC(C)C)NC(=O)[C@H](CC(=O)O)NC(=O)[C@H](CO)NC(=O)[C@@H](NC(=O)[C@H](Cc1ccccc1)NC(=O)[C@@H](NC(=O)CNC(=O)[C@H](CCC(N)=O)NC(=O)C(C)(C)NC(=O)[C@@H](N)Cc1c[nH]cn1)[C@@H](C)O)[C@@H](C)O)C(=O)N[C@@H](CCC(=O)O)C(=O)N[C@@H](CCC(=O)O)C(=O)N[C@@H](CCC(N)=O)C(=O)N[C@@H](CCCNC(=N)N)C(=O)N[C@@H](CCC(N)=O)C(=O)NC(C)(C)C(=O)N[C@@H](CCC(=O)O)C(=O)N[C@@H](Cc1ccccc1)C(=O)N[C@H](C(=O)N[C@@H](CCC(=O)O)C(=O)N[C@@H](Cc1c[nH]c2ccccc12)C(=O)N[C@@H](CC(C)C)C(=O)N[C@@H](CCCCN)C(=O)N[C@@H](C)C(=O)NCC(=O)NCC(=O)N[C@@H](Cc1c[nH]cn1)C(=O)N1CCC[C@H]1C(=O)N[C@@H](CO)C(=O)NC(C)(C)C(=O)N[C@@H](CCCCN)C(=O)N1CCC[C@H]1C(=O)N1CCC[C@H]1C(=O)N1CCC[C@H]1C(=O)N[C@@H](CCCCN)C(N)=O)[C@@H](C)CC)C(=O)O)C(=O)O
B6: the “EC50 hGlucagon R (cAMP formation)” value with human glucagon receptor turned out to be 46.6 pM. Besides, the “EC50 hGIP R (cAMP formation)” value in the test with human GIP receptor worked out at 5.6 pM. The “EC50 hGLP-1R (cAMP formation)” value with human GLP-1 receptor turned out to be 1.7 pM.

B7: SEQ ID NO: 19 (peptide)
peptide: H[Aib]QGTFTSDLSKLK([γGlu-γGlu-AEEA-Palmitoyl])EEQRQ[Aib]EFIEWLKA[dA]GHPS[Aib]KPPPK-NH2
modifications: N-terminus assumed
SMILES: CCCCCCCCCCCCCCCC(=O)NCCOCCOCC(=O)N[C@@H](CCC(=O)N[C@@H](CCC(=O)NCCCC[C@H](NC(=O)[C@H](CC(C)C)NC(=O)[C@H](CCCCN)NC(=O)[C@H](CO)NC(=O)[C@H](CC(C)C)NC(=O)[C@H](CC(=O)O)NC(=O)[C@H](CO)NC(=O)[C@@H](NC(=O)[C@H](Cc1ccccc1)NC(=O)[C@@H](NC(=O)CNC(=O)[C@H](CCC(N)=O)NC(=O)C(C)(C)NC(=O)[C@@H](N)Cc1c[nH]cn1)[C@@H](C)O)[C@@H](C)O)C(=O)N[C@@H](CCC(=O)O)C(=O)N[C@@H](CCC(=O)O)C(=O)N[C@@H](CCC(N)=O)C(=O)N[C@@H](CCCNC(=N)N)C(=O)N[C@@H](CCC(N)=O)C(=O)NC(C)(C)C(=O)N[C@@H](CCC(=O)O)C(=O)N[C@@H](Cc1ccccc1)C(=O)N[C@H](C(=O)N[C@@H](CCC(=O)O)C(=O)N[C@@H](Cc1c[nH]c2ccccc12)C(=O)N[C@@H](CC(C)C)C(=O)N[C@@H](CCCCN)C(=O)N[C@@H](C)C(=O)N[C@H](C)C(=O)NCC(=O)N[C@@H](Cc1c[nH]cn1)C(=O)N1CCC[C@H]1C(=O)N[C@@H](CO)C(=O)NC(C)(C)C(=O)N[C@@H](CCCCN)C(=O)N1CCC[C@H]1C(=O)N1CCC[C@H]1C(=O)N1CCC[C@H]1C(=O)N[C@@H](CCCCN)C(N)=O)[C@@H](C)CC)C(=O)O)C(=O)O
Regarding B7, the “EC50 hGlucagon R (cAMP formation)” value with human glucagon receptor is 52.2 pM. Moreover, the “EC50 hGIP R (cAMP formation)” value with human GIP receptor stood at 7.9 pM. For the same molecule, the “EC50 hGLP-1R (cAMP formation)” value with human GLP-1 receptor was determined as 1.9 pM.
